Data as given in article PMC5542437, “Assembly and stoichiometry of the core structure of the bacterial flagellar type III export gate complex” (PLoS Biology, 2017).

B1: His-St-FliP (Salmonella FliP with a hexahistidine tag inserted between Gln-22 and Leu-23) (natural protein)
chain: QLPGLISQPLAGGGQSWSLSVQTLVFITSLTFLPAILLMMTSFTRIIIVFGLLRNALGTPSAPPNQVLLGLALFLTFFIMSPVIDKIYVDAYQPFSEQKISMQEALDKGAQPLRAFMLRQTREADLALFARLANSGPLQGPEAVPMRILLPAYVTSELKTAFQIGFTIFIPFLIIDLVIASVLMALGMMMVPPATIALPFKLMLFVLVDGWQLLMGSLAQSFYS
notes: FliP, Salmonella enterica, 25-kDa transmembrane protein; mature form studied; the signal peptide (Met-1 to Gln-22) is cleaved during membrane insertion; tag LHHHHHH inserted between Gln-22 and Leu-23; Hexameric ring in SEC peak 2; also called His-FliP; FliP6 ring; source: Salmonella SJW1368, membranes solubilised with 1% DDM or 1% LMNG; purified (Ni-NTA, SEC); not shown: His6 (LHHHHHH), internal …
B2: HA-FliQ (natural protein)
chain: MTPESVMMMGTEAMKVALALAAPLLLVALITGLIISILQAATQINEMTLSFIPKIVAVFIAIIVAGPWMLNLLLDYVRTLFSNLPYIIG
notes: FliQ, Salmonella enterica, transmembrane export gate protein; source: Salmonella SJW1368, pTrc99A-based plasmid, in DDM- or LMNG-solubilised membranes; co-purified

Experiments:
[1] = biological target: the molecule itself; assay: negative-stain electron microscopy with 2D class averaging; purified SEC peak fractions, 1.0% uranyl acetate, 100 kV; autocorrelation analysis for the rotational symmetry of the FliP ring
FlhB = biological target: T1, FlhB (Salmonella enterica, UniProt P40727 1-383); assay: pull-down; copurification from Salmonella SJW1368 co-expressing His-FliP with other export gate proteins; membranes solubilised with 1% DDM; Ni affinity, then anti-FLAG M2 affinity (eluted with FLAG peptide), then SEC on Superdex 200 10/300; SDS-PAGE with CBB; conditions: partners not purified
T1 construct: FlhB, Salmonella enterica, transmembrane export gate protein; its C-terminal cytoplasmic domain undergoes autocleavage between Asp-269 and Pro270 as printed; source: Salmonella SJW1368, pTrc99A-based plasmid, in DDM- or LMNG-solubilised membranes; co-purified
T1 sequence: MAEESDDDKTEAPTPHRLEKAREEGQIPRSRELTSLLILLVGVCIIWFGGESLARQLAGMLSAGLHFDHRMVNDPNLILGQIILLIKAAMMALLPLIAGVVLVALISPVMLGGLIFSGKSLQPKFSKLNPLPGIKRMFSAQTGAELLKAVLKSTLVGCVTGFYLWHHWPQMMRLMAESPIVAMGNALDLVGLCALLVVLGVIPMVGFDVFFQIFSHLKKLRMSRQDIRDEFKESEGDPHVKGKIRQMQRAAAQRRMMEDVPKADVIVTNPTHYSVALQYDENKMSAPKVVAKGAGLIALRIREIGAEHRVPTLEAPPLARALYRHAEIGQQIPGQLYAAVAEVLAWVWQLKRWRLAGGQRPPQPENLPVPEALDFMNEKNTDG

FliR-FLAG = biological target: T2, FliR-FLAG (Salmonella enterica, UniProt P54702 1-264); assay: as above; conditions: partners not purified
T2 construct: FliR, Salmonella enterica, transmembrane export gate protein; also called FLAG-FliR (as printed in the methods); source: Salmonella SJW1368, pTrc99A-based plasmid, in DDM- or LMNG-solubilised membranes; co-purified (Ni-NTA, anti-FLAG gel, SEC)
T2 sequence: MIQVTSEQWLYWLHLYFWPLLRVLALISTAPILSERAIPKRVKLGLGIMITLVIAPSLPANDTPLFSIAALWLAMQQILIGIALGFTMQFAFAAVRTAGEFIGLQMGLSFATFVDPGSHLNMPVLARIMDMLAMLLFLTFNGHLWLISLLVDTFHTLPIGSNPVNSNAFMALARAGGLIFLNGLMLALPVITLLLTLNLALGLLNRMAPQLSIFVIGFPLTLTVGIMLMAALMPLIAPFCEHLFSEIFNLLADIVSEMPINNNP

FlhA = biological target: T3, FlhA (Salmonella enterica, UniProt P40729 1-692); assay: pull-down; Ni-NTA copurification with His-FliP from SJW1368 co-expressing FlhA, FlhB, FliO, His-FliP, HA-FliQ and FliR-FLAG; membranes solubilised with 1% LMNG; immunoblot (lane L of Fig 6B); conditions: partners not purified
T3 construct: FlhA, Salmonella enterica, transmembrane export gate protein; source: Salmonella SJW1368, pTrc99A-based plasmid, in DDM- or LMNG-solubilised membranes; co-purified
T3 sequence: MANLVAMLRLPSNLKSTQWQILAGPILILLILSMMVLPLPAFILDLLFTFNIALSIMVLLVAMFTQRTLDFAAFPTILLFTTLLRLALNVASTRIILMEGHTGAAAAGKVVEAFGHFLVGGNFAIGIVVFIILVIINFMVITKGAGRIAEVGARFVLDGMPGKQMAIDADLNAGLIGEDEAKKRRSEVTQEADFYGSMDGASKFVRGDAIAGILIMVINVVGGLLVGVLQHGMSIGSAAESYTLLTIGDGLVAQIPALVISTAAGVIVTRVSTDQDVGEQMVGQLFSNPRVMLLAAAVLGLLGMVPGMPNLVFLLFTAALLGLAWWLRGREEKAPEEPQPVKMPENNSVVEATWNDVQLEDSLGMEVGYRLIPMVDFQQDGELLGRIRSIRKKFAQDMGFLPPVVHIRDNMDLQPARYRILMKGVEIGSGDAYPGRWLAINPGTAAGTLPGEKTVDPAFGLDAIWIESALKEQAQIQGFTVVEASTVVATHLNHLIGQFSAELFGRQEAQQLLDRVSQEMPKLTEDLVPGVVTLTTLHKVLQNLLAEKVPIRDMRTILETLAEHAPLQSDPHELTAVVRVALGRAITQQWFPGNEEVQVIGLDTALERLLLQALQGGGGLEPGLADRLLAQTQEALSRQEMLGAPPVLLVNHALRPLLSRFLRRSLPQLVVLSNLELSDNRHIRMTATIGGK

[2] = biological target: the molecule itself; assay: SEC; Ni-purified His-FliP or FliO/His-FliP complexes (wild type and mutants) on Superdex 200 10/300; 20 mM Tris-HCl pH 8.0, 300 mM NaCl, 2 mM EDTA, 5% glycerol, 0.1% DDM
[3] = biological target: B1; assay: pull-down; Ni-NTA copurification with His-FliP from SJW1368 co-expressing FlhA, FlhB, FliO, His-FliP, HA-FliQ and FliR-FLAG; membranes solubilised with 1% LMNG; immunoblot (lane L of Fig 6B); conditions: partners not purified

| Binder | stoichiometry N [1] | binding result (FlhB) | binding result (FliR-FLAG) | binding result (FlhA) | stoichiometry N [2] | binding result [3] |
| --- | --- | --- | --- | --- | --- | --- |
| B1 | 6 | binds | binds | binds | 2 | – |
| B2 | – | – | – | – | – | binds |
